Source: patent publication US20060193821, “Aptamers to the human IL-12 cytokine family and their use as autoimmune disease therapeutics” (published 2006)

What was measured:
[1] = biological target: T1, IL-23 (human, p19/p40 heterodimer) (Homo sapiens, UniProt Q9NPF7;P29460 SEQ:20-189,SEQ:23-328); assay: filter; 0.1 mg/mL tRNA, 30 min RT; conditions: tags: R&D Systems, carrier free; label: 5'-32P
Description: (§1) Monitoring Progress of rRfY Selection. Dot blot binding assays were performed throughout the selections to monitor the protein binding affinity of the pools. Trace ³²P-labeled RNA was combined with a dilution series of h-IL-23 and incubated at room temperature for 30 minutes in 1×SHMCK (20 mM Hepes, 120 mM NaCl, 5 mM KCl, 1 mM MgCl₂, 1 mM CaCl₂, pH 7.4) plus 0.1 mg/mL tRNA for a final volume of 20 μL. The binding reactions were analyzed by nitrocellulose filtration using a Minifold I dot-blot, 96-well vacuum filtration manifold (Schleicher & Schuell, Keene, N.H.). A three-layer filtration medium was used, consisting (from top to bottom) of Protran nitrocellulose (Schleicher & Schuell), Hybond-P nylon (Amersham Biosciences) and GB002 gel blot paper (Schleicher & Schuell). RNA that is bound to protein is captured on the nitrocellulose filter, whereas the non-protein bound RNA is captured on the nylon filter. The gel blot paper was included simply as a supporting medium for the other filters. Following filtration, the filter layers were separated, dried and exposed on a phosphor screen (Amersham Biosciences, Piscataway, N.J.) and quantified using a Storm 860 Phosphorimager® blot imaging system (Amersham Biosciences).

[2] = biological target: T1, IL-23 (human, p19/p40 heterodimer); assay: cell_activity; Pathscan pSTAT3; conditions: tags: R&D Systems, carrier free
Description: Inhibition of IL-23-induced STAT3 phosphorylation was measured using the Pathscan® Phospho-STAT3 (Tyr705) Sandwich ELISA Kit (Cell Signaling Technology, Beverly, Mass.).
Similar to the TransAM™ Assay method previously described, the Pathscan® Phospho-STAT3 (Tyr705) Sandwich ELISA Kit detects endogenous levels of Phospho-STAT3 (Tyr705) protein by using a STAT3 rabbit monoclonal antibody which has been coated onto the wells of a 96-well plate. After incubation with cell lysates, both nonphospho- and phospho-STAT3 proteins are captured by the coated antibody. A phospho-STAT3 mouse monoclonal antibody is added to detect the captured phospho-STAT3 protein, and an HRP-linked anti-mouse antibody is then used to recognize the bound detection antibody. HRP substrate, TMB, is added to develop color, and the magnitude of optical density for this developed color is proportional to the quantity of phospho-STAT3 protein.
PHA Blasts were isolated and prepared as described above and treated with hIL-23 at a final constant concentration of 6 ng/mL (R&D Systems, Minneapolis, Minn.) to induce STAT3 activation, instead of using 3 ng/mL as previously described with the TransAM™ assay. Clones were screened by using a 6-point […] titration from 0 to 700 nM in 3 fold dilutions in combination with a constant IL-23 concentration of 6 ng/mL of IL-23 (R&D Systems, Minneapolis, Minn.) to induce STAT3 activation, instead of using 3 ng/mL as previously described with the TransAM™ assay. Lysates of treated cells were prepared using the buffers provided by the Pathscan kit, and the assay was run according to the manufacturer's instructions. IC₅₀s for the full length clones were calculated from the dose response curves.

[3] = biological target: T1, IL-23 (human, p19/p40 heterodimer); assay: filter; DPBS Ca Mg; conditions: tags: R&D Systems, carrier free
Description: The dot blot binding assay previously described was used to characterize the relative potency of the majority of the aptamers synthesized. For KD determination, chemically synthesized aptamers were purified using denaturing polyacrylamide gel electrophoresis, 5′end labeled with γ-³²P ATP and were tested for direct binding to full human IL-23. An 8 point protein titration was used in the dot blot binding assay (either {100 nM, 30 nM, 10 nM, 3 nM, 1 nM, 300 pM, 100 pM, 0 pM} or {10 nM, 3 nM, 1 nM, 300 pM, 100 pM, 30 pM, 10 pM, 0 pM}) in Dulbecco's PBS (with Mg⁺⁺ and Ca⁺⁺) with 0.1 mg/mL BSA. KD values were calculated by fitting the equation y=(max/(1+K/protein))+yint using KaleidaGraph (KaleidaGraph v. 3.51, Synergy Software). Sequences of the ARC979 derivatives synthesized, purified and assayed for binding to IL-23 as well as the results of the protein binding characterization are tabulated below in Tables 29 and 30.

[4] = biological target: T2, IL-12 (human, p35/p40 heterodimer) (Homo sapiens, UniProt P29459;P29460 SEQ:57-253,SEQ:23-328); assay: filter; 1X SHMCK, 0.1 mg/mL tRNA, RT; conditions: label: 5'-32P
Description: as §1
(§2) When a significant positive ratio of binding of RNA in the presence of h-IL-23 versus in the absence of h-IL-23 was seen, the pools were cloned using a TOPO TA cloning kit (Invitrogen, Carlsbad, Calif.) according to the manufacturer's instructions. For the h-IL-23 and X-IL-23 selections, the Round 8 pool templates were cloned, and 32 individual clones from each selections were assayed in a 1-point dot blot screen (+/−75 nM h-IL-23, as well as a separate screen at +/−75 nM h-IL-12). For the PN-IL-23 selection, the Round 10 pool was cloned and sequenced, and 8 unique clones were assayed for protein binding in a 1-point dot blot screen (+/−200 nM h-IL-23 and a separate screen at +/−200 nM h-IL-12). Subsequently, the Round 10 PN-IL-23 pool was re-cloned for further sequences, as well as the R12 PN-IL-23 pool, and the clones were assayed for protein binding in a 1 point do blot screen (+/−100 nM h-IL-23 or +/−200 nM h-IL-12).

[5] = biological target: T1, IL-23 (human, p19/p40 heterodimer); assay: filter; 1X SHMCK, 1 mM Mg, 1 mM Ca, 0.1 mg/mL tRNA, RT; conditions: tags: R&D Systems, carrier free; label: 5'-32P
Description: as §1, §2

[6] = biological target: T1, IL-23 (human, p19/p40 heterodimer); assay: filter; 1X PBS, tRNA, ssDNA, BSA, 30 min RT; conditions: tags: R&D Systems, carrier free; label: 32P
[7] = biological target: T2, IL-12 (human, p35/p40 heterodimer); assay: filter; 1X PBS, tRNA, ssDNA, BSA, 30 min RT; conditions: label: 32P
[8] = biological target: T1, IL-23 (human, p19/p40 heterodimer); assay: filter; DPBS with Ca and Mg, 0.1 mg/mL tRNA, 30 min RT; conditions: tags: R&D Systems, carrier free; label: 32P
Description: The selection progress was monitored using the dot blot sandwich filter binding assay as described in Example 1A. The 5′-³²P-labeled pool RNA was refolded at 90° C. for 3 minutes and cooled to room temperature for 10 minutes. Next, pool RNA (trace concentration) was incubated with h-IL-23 DPBS plus 0.1 mg/mL tRNA for 30 minutes at room temperature and then applied to a nitrocellulose and nylon filter sandwich in a dot blot apparatus (Schleicher and Schuell). The percentage of pool RNA bound to the nitrocellulose was calculated and monitored approximately every 3 rounds with a single point screen (+/−250 nM h-IL-23). Pool KD measurements were measured using a titration of h-IL-23 protein (R&D, Minneapolis, Minn.) and the dot blot apparatus as described above.
The rRmY h-IL-23 selection was enriched for h-IL-23 binding vs. the naïve pool after 4 rounds of selection (data not shown). The selection stringency was increased and the selection was continued for 8 more rounds. […] The rGmH selection was enriched over the naïve pool binding at Round 10. […] FIG. 7 is a binding curve of rRmY and rGmH pool selection binding to h-IL-23. The pools were cloned using TOPO TA cloning kit (Invitrogen, Carlsbad, Calif.) and individual sequences were generated and tested for binding. A single point binding screen was initially performed on all crude rRmY clone transcriptions using a 1:200 dilution, +/−200 nM IL-23, plus 0.1 mg/mL competitor tRNA. […] The 10 point screen was performed using zero to 480 nM IL-23 in 3 fold serial dilutions. Binding curves were generated (KaleidaGraph v. 3.51, Synergy Software) and KDs were estimated by fitting the data to the equation: fraction RNA bound=amplitude[h-IL-23]/KD+[h-IL-23]). […] There was one group of 6 duplicate sequences and 4 pairs of 2 duplicate sequences out of the rRmY clones generated. […] Clones were also tested from 48 crude rGmH clone transcriptions at a 1:200 dilution and 0.1 mg/mL tRNA was used as competitor.

T2 sequence (P29459 23-219, chain 1 of 2): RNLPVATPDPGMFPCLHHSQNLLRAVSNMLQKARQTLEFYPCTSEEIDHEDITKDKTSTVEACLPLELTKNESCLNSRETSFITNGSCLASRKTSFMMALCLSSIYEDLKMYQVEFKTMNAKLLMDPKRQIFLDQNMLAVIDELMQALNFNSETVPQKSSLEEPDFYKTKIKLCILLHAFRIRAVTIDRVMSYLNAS
T2 sequence (P29460 23-328, chain 2 of 2): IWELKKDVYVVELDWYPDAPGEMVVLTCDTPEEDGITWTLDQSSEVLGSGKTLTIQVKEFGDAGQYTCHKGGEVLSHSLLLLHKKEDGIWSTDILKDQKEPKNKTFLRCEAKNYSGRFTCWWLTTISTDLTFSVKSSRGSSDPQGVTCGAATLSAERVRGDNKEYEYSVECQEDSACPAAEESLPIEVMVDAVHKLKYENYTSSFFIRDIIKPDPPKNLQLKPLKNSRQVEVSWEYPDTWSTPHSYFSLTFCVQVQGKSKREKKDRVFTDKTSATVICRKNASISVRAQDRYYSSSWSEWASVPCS
T1 sequence (Q9NPF7 20-189, chain 1 of 2): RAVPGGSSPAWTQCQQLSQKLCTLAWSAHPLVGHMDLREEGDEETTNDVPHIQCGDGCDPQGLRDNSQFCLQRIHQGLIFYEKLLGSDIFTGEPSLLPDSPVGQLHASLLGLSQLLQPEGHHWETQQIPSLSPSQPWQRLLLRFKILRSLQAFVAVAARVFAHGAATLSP
T1 sequence (P29460 23-328, chain 2 of 2): as the sequence (P29460 23-328, chain 2 of 2) above

B1: B10.min4 (ssRNA)
RNA: GGAGCAUACACAAGAAGUGCUUCAUGCGGCAAACUGCAUGACGUCGAAUAGAUAUGCUCC
modifications: 2'-F all C and U (rRfY)
Kd [1]: 36.4 nM

GGAGUACGCCGAAAGGCGCUUCCGAAAGGACGUCCGUAAGGGAUACUCC (ssRNA, 2'-F all C and U (rRfY)) [Type 1.5]
Kd [1]: 31.4 nM

B2: ARC1622 (mixed)
RNA: ACAGGCAAGUAAUUGGGGAGUGCGGGCGGGGUGU
modifications: 2'-OMe C,U and G16,G17,G24,G25,G30,G31; other A,G deoxy; PS 6-7,7-8,8-9,10-11,11-12,14-15; 3'-idT [PS 6-7,7-8,8-9,10-11,11-12,14-15; 2'-OMe at 2,6,10,13,14,16,17,21,23,24,25,27,30,31,32,34; other A,G deoxy; 3'-inverted dT at 35]
IC50 [2]: 9 nM
Kd [3]: 0.3 nM

B3: ARC1755 (mixed)
RNA: ACAGGCAAGUAAUUGGGGAGUGCGGGCGGGGUGU
modifications: 2'-OMe C,U and most purines; PS 2-3,6-7,11-12,14-15; 3'-idT [2'-OMe C2,C6,U10,U13,U14,U21,C23,C27,U32,U34 and most purines (positions not stated); PS 2-3,6-7,11-12,14-15 (N = PS linkage, left out); 3'-inverted dT 35]
IC50 [2]: 68 nM
Kd [3]: 0.8 nM

B4: ARC1626 (mixed)
RNA: ACAGGCAAGUAAUUGGGGAGUGCGGGCGGGGUGU
modifications: 2'-OMe C,U and G16,G17,G24,G25,G30,G31; other A,G deoxy; multiple PS; 3'-idT [2'-OMe C2,C6,U10,U13,U14,G16,G17,U21,C23,G24,G25,C27,G30,G31,U32,U34; other A,G deoxy; PS 2-3,3-4,4-5,6-7,7-8,8-9,10-11,11-12,14-15,17-18,18-19,19-20,21-22,25-26,27-28,28-29,32-33 (N = PS linkage, left out); 3'-inverted dT 35]
IC50 [2]: 12 nM

B5: ARC1623 (mixed)
RNA: ACAGGCAAGUAAUUGGGGAGUGCGGGCGGGGUGU
modifications: 2'-OMe C,U and G16,G17,G24,G25,G30,G31; other A,G deoxy; PS 17-18,18-19,19-20,21-22; 3'-idT [2'-OMe C2,C6,U10,U13,U14,G16,G17,U21,C23,G24,G25,C27,G30,G31,U32,U34; other A,G deoxy; PS 17-18,18-19,19-20,21-22 (N = PS linkage, left out); 3'-inverted dT 35]
IC50 [2]: 5 nM

B6: AMX84-C11 (ssRNA)
RNA: GGGAAAAGCGAAUCAUACACAAGAAUGGUCGGAAUCUCUGGCGCCACGCUGAGUAUAGACGGAAGCUCCGCCAGAGACCAACCGAGAA
modifications: 2'-F all C and U (rRfY)
Kd [4]: 286 nM
Kd [5]: 15.5 nM

B7: ARC489 (mixed)
RNA: GGGAGAGGAGAGAACGUUCUACAGCGCCGGUGGGCGGGCAUUGGGUGGAUGCGCUGUCGAUCGAUCGAUCGAUG
modifications: 2'-deoxy A and G, 2'-OMe C and U (dRmY)
Kd [6]: 4 nM
Kd [7]: 17.2 nM

B8: ARC491 (mixed)
RNA: GGGAGAGGAGAGAACGUUCUACAGCGCCGGUGGGUGGGCAUAGGGUGGAUGCGCUGUCGAUCGAUCGAUCGAUG
modifications: 2'-deoxy A and G, 2'-OMe C and U (dRmY)
Kd [6]: 17.1 nM
Kd [7]: 93 nM

B9: AMX91-B8 (ssRNA)
RNA: GGGAAAAGCGAAUCAUACACAAGAAUCCUGGCUUCGCAUAGUGUAUGGGUAGUACGACAGCGCGUGCUCCGCCAGAGACCAACCGAGAA
modifications: 2'-F all C and U (rRfY)
Kd [4]: 409 nM
Kd [5]: 17.6 nM

B10: rRmY clone SEQ 76 (ssRNA)
RNA: GGGAGAGGAGAGAACGUUCUACAACAAAGCAGGCUCAUAGUAAUAUGGAAGUCGCUGUCGAUCGAUCGAUCGAUG
modifications: 2'-OMe all C and U (rRmY)
Kd [8]: 77.2 nM

B11: rRmY clone SEQ 83 (ssRNA)
RNA: GGGAGAGGAGAGAACGUUCUACGCAGGCUGUCGUAGACAAACGAUGAAGUCGCGCUGUCGAUCGAUCGAUCGAUG
modifications: 2'-OMe all C and U (rRmY)
Kd [8]: 8.2 nM

B12: rRmY clone SEQ 80 (ssRNA)
RNA: GGGAGAGGAGAGAACGUUCUACAAGAUAUAAUUAAGGAUAAGUGCAAAGGAGACGCUGUCGAUCGAUCGAUCGAUG
modifications: 2'-OMe all C and U (rRmY)
Kd [8]: 3790 nM

B13: rRmY clone SEQ 88 (ssRNA)
RNA: GGGAGAGGAGAGAACGUUCUACAUAAGCAGGCUCCGAUAGUAUUCGGGAAGUCGCUGUCGAUCGAUCGAUCGAUG
modifications: 2'-OMe all C and U (rRmY)
Kd [8]: 101 nM

B14: A10.min5 (ssRNA)
RNA: GGAGCAUACACAAGAAGUUUUUUGUGCUCUGAGUACUCAGCGUCCGUAAGGGAUAUGCUCC
modifications: 2'-F all C and U (rRfY)
Kd [1]: 57.8 nM

B15: F11.min2 (ssRNA)
RNA: GGACAUACACAAGAUGUGCUUGAGUUAAAUCUCAUCGUCCCCGUUUGGGGAUAUGUC
modifications: 2'-F all C and U (rRfY)
Kd [1]: 65 nM

B16: AMX86-G10 (ssRNA)
RNA: GGGAAAAGCGAAUCAUACACAAGAGUCAUGGCUUACAAUUGAAACAAGAGCUCGCGUGACACAUGCUCCGCCAGAGACCAACCGAGAA
modifications: 2'-F all C and U (rRfY)
Kd [4]: 356 nM
Kd [5]: 73.7 nM

B17: AMX86-D11 (ssRNA)
RNA: GGGAAAAGCGAAUCAUACACAAGAUAGCGUCUAUGAUGGCGGAGAAGCAAGUGUAGCAUAACAGGCUCCGCCAGAGACCAACCGAGAA
modifications: 2'-F all C and U (rRfY)
Kd [4]: 114 nM
Kd [5]: 199 nM
